Results on seven molecules are retold here after patent US7238668B1, “Inhibition of lymphocyte adherence with CS-1-peptides and fragments thereof” (Fred Hutchinson Cancer Research Center, priority 1989, dated 2007).

Assay [1] deals with T1, integrin receptor α4β1 (human, UniProt P13612 34-1032; P05556 21-798). The experiment in a line: adhesion of 51Cr-Jurkat cells to plasma fibronectin-coated plastic with hybridoma supernatant; SP2 control 100%.
The target in assay [2] is T1, integrin receptor α4β1. Description: adhesion of 51Cr-PBL to plasma fibronectin-coated plastic with hybridoma supernatant; SP2 control 100%.
For assay [3], the target named is T1, integrin receptor α4β1. Description: adhesion of T lymphocytes to 38 kDa-coated plastic with P4C2; IgG control 22680.
In assay [4] the target is T1, integrin receptor α4β1. Description: adhesion of T lymphocytes to 80 kDa-coated plastic with P4C2; IgG control 8580.
The target in assay [5] is T1, integrin receptor α4β1. Description: adhesion of 51Cr-Molt 4 cells to plasma fibronectin-coated plastic with hybridoma supernatant; SP2 control 100%.
In assay [6] the target is T1, integrin receptor α4β1. Description: adhesion of T lymphocytes to CS-1 (rabbit IgG conjugate)-coated plastic with P4C2; IgG control 44339.
Assay [7] has as its target T1, integrin receptor α4β1. The experiment in a line: cell-based or functional assay.
The target in assay [8] is T1, integrin receptor α4β1. Description: adhesion of 51Cr-HT1080 cells to plasma fibronectin-coated plastic with hybridoma supernatant; SP2 control 100%.
The target of assay [9] is T1, integrin receptor α4β1. Description: adhesion of T lymphocytes to CS-2 (rabbit IgG conjugate)-coated plastic with P4C2; IgG control […].
For assay [10], the system named is LAD (B) lymphocyte adhesion to HUVE monolayers. The experiment in a line: Endothelial cell adhesion assay, LAD cells on HUVE monolayers. The class given is cell-based, human. The conditions noted are these: for Adhesion (cpm) +IL-1β: IL-1β activated HUVE. How it is done:
(§1) HUVEs were incubated with IL-1 β (1 ng/ml) or in some experiments with TNF α (10 ng/ml) for 6–24 hours. At the end of this incubation the HUVE monolayers were washed and used in the adhesion assay.
(§2) Human umbilical vein endothelial cells (HUVEs) were cultured in 48 well plates as described (supra). To measure adherence of lymphocytes to HUVE monolayer cultures, lymphocytes were labeled with Na2 ^51CrO4 (50 μCi/ml) for 2–4 hours), washed, and then 10^5 lymphocytes were incubated with HUVE monolayers in the presence or absence of inhibitory antibodies or CS-1 derived peptides. The lymphocytes were allowed to adhere for 30 minutes at 37°. Non-adherent cells were subsequently removed by washing with PBS, and the adherent cells were dissolved in SDS/NaOH. Bound ^51Cr-cpm were quantitated in a gamma counter. In some experiments, endothelial cells were activated prior to the adhesion assay by incubating with IL-1 β (1 ng/ml) or […] (10 ng/ml) for 6–24 hours in defined CS-100 media (Cell Systems, Seattle, Wash.).

For a further assay, the system named is Jurkat cells. The experiment in a line: Peptide inhibition of Jurkat cell adhesion to plasma fibronectin (50% inhibition point). The class given is cell-based, human. The settings on record: read-out: Molar Concentration (mM) required for 50% inhibition of Jurkat cell adhesion to plasma fibronectin; fibronectin 5 ug/ml; 30 min. How it is done:
For peptide inhibition studies, ^51Cr-labeled test cells were pre-incubated with CS-1 derived peptides at various concentrations for 15 min at room temperature. The test cells were then allowed to attach to fibronectin-coated surfaces in the presence of exogenous test peptides for 30–60 min. The assay then proceeded as described above.
For these experiments in Table XIII ^51Cr-labeled Jurkat cells (10^5/well) were incubated in the presence of the varying concentrations (starting at 2 mg/ml) of the indicated peptides for 15 min. The Jurkat cells were then allowed to adhere to plasma fibronectin-coated surfaces (5 ug/ml) in the presence of the peptides for 30 min. Adhesion to fibronectin was graphically depicted as cpm bound to the fibronectin surface (Y axis), plotted as a function of molar peptide concentration (X axis).

The test system of assay [11] is Ramos (B) lymphocyte adhesion to HUVE monolayers. Description: Endothelial cell adhesion assay, Ramos cells on HUVE monolayers. It counts as cell-based, human. The conditions noted are these: for Adhesion (cpm) +IL-1β: IL-1β activated HUVE. How it is done:
as §1, §2

For assay [12], the system named is Jurkat (T) lymphocyte adhesion to HUVE monolayers. The experiment in a line: Endothelial cell adhesion assay, Jurkat cells on HUVE monolayers. It counts as cell-based, human. The settings on record: for Adhesion (cpm) +IL-1β: IL-1β activated HUVE. How it is done:
as §1, §2

Assay [13] has as its target T2, integrin α5β1 (human, UniProt P08648 42-1049; P05556 21-798). Description: adhesion of 51Cr-Jurkat cells to plasma fibronectin-coated plastic with hybridoma supernatant; SP2 control 100%.
The target of assay [14] is T2, integrin α5β1. Description: adhesion of 51Cr-PBL to plasma fibronectin-coated plastic with hybridoma supernatant; SP2 control 100%.
Assay [15] concerns the target T2, integrin α5β1. The experiment in a line: adhesion of T lymphocytes to CS-2 (rabbit IgG conjugate)-coated plastic with P1D6; IgG control […].
For assay [16], the target named is T2, integrin α5β1. Description: adhesion of 51Cr-Molt 4 cells to plasma fibronectin-coated plastic with hybridoma supernatant; SP2 control 100%.
For assay [17], the target named is T2, integrin α5β1. The experiment in a line: adhesion of T lymphocytes to CS-1 (rabbit IgG conjugate)-coated plastic with P1D6; IgG control 44339.
The target in assay [18] is T2, integrin α5β1. The experiment in a line: cell-based or functional assay.
Assay [19] has as its target T2, integrin α5β1. The experiment in a line: adhesion of T lymphocytes to 80 kDa-coated plastic with P1D6; IgG control 8580.
The target in assay [20] is T2, integrin α5β1. The experiment in a line: adhesion of T lymphocytes to 38 kDa-coated plastic with P1D6; IgG control 22680.
Assay [21] addresses T2, integrin α5β1. Description: adhesion of 51Cr-HT1080 cells to plasma fibronectin-coated plastic with hybridoma supernatant; SP2 control 100%.
Assay [22] deals with T1, integrin receptor α4β1. Description: adhesion of Jurkat and Molt 4 cells to coated fragments.
The target in assay [23] is T1, integrin receptor α4β1. Description: adhesion of 51Cr-Jurkat cells to surfaces coated with graded peptide-rsa conjugate; 50% of total input cpm, read from plot. How it is done: Therefore, peptide-conjugates were prepared using rabbit serum albumin (rsa) as a carrier and the conjugates were tested for their ability to support cell adhesion. […] The adhesion experiments presented in Table XIV were conducted as follows:
(No adhesion=no measurable adhesion above negative controls.)

Ends that are not written are not given here. A value given as a limit tells only on which side of the number the result lay.

T2 sequence (P08648 42-1049, chain 1 of 2): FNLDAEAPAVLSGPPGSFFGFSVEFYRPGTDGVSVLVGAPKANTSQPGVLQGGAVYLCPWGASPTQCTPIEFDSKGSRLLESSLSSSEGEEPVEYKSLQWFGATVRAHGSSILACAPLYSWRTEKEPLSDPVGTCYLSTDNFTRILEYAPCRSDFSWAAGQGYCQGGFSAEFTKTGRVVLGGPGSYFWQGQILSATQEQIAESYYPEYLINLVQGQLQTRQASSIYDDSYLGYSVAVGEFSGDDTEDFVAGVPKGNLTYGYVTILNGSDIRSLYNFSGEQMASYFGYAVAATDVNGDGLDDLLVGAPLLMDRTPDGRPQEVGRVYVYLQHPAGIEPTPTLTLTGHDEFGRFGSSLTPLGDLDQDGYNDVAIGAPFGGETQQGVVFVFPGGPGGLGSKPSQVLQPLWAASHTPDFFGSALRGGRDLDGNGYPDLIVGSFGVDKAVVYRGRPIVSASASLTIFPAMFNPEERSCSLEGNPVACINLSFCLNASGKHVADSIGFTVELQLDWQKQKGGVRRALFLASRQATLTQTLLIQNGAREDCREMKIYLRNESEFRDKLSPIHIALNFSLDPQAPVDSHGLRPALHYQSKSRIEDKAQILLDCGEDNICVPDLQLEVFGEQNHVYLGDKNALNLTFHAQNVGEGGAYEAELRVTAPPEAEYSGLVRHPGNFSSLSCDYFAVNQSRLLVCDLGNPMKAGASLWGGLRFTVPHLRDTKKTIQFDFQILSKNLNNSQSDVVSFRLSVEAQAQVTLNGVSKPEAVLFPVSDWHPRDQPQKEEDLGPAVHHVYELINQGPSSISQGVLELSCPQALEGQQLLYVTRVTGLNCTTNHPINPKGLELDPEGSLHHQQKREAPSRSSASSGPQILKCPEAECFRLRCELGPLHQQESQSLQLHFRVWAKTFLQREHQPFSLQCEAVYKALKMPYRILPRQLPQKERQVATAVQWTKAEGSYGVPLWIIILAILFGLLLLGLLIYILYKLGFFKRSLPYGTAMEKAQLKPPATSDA
T2 sequence (P05556 21-798, chain 2 of 2): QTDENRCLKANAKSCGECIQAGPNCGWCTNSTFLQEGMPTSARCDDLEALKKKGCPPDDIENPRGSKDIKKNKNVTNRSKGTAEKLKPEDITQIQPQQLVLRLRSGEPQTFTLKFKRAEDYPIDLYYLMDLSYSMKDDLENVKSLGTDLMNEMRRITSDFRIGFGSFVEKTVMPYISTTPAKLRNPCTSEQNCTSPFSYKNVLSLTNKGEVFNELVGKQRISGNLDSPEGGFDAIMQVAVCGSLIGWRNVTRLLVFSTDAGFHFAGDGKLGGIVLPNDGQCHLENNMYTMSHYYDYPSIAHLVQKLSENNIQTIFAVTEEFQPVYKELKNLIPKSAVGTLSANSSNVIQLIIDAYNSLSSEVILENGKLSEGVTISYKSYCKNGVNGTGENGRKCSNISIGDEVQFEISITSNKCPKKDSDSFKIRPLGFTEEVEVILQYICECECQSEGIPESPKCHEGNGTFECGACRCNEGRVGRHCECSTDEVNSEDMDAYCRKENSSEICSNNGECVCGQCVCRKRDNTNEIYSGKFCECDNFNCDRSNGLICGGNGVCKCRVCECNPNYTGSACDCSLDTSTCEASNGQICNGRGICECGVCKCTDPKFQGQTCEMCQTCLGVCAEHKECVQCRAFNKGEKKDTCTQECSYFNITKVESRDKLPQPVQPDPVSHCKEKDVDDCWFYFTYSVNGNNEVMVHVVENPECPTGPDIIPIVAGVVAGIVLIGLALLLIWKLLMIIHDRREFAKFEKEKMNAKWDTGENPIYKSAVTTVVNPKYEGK
T1 sequence (P13612 34-1032, form in doubt, chain 1 of 2): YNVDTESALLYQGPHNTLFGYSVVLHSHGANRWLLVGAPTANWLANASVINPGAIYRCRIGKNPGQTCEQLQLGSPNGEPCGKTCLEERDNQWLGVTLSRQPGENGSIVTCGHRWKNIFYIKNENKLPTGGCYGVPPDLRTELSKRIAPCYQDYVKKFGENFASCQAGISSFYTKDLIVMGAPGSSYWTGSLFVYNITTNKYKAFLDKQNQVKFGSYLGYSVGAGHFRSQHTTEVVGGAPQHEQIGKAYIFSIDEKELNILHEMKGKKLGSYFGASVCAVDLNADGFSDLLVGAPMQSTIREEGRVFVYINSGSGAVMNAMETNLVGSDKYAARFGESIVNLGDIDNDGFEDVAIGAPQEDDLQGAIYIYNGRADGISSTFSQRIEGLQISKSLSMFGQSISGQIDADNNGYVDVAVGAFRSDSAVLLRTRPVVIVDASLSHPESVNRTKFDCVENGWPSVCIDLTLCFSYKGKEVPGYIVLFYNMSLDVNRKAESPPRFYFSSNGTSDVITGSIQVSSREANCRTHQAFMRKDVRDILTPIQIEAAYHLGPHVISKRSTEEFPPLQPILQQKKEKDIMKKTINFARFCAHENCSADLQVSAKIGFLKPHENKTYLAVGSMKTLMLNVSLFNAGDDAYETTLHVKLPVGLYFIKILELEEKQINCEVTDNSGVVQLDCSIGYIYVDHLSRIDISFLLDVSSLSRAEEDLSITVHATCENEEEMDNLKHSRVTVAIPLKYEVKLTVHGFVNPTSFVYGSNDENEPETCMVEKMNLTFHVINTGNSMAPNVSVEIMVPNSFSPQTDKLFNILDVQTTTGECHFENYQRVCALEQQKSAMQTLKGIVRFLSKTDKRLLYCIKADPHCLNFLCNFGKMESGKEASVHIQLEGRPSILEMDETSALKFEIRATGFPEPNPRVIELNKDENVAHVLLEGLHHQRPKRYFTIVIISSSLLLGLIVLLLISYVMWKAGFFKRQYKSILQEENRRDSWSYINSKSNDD
T1 sequence (P05556 21-798, form in doubt, chain 2 of 2): as the sequence (P05556 21-798, chain 2 of 2) above

Take monoclonal antibody P4C2: the Fibronectin Adhesion (% Control) came to 12 % Control with integrin receptor α4β1 [1], 10 % Control with integrin receptor α4β1 [2], 8 % Control with integrin receptor α4β1 [5] and 93 % Control in the assay with integrin receptor α4β1 [8]. Also, the T lymphocyte adhesion (unit not given) with integrin receptor α4β1 [3] was determined as 114; in the assay with integrin receptor α4β1 [4] it was 7150; with integrin receptor α4β1 [6], 841; with integrin receptor α4β1 [9], 535. The same molecule had an Adhesion (cpm), Jurkat (T) on HUVE monolayers, +IL-1β; SP2 control 372159 with integrin receptor α4β1 [7] of 137000 cpm. Also, the Adhesion (cpm), Jurkat (T) on HUVE monolayers, Basal; SP2 control 83924 with integrin receptor α4β1 [7] is 23100 cpm. For the same molecule, the Adhesion (cpm), LAD (B) on HUVE monolayers, +IL-1β; SP2 control 104672 with integrin receptor α4β1 [7] was 38100 cpm. Besides, the Adhesion (cpm), LAD (B) on HUVE monolayers, Basal; SP2 control 19542 in the assay with integrin receptor α4β1 [7] came out at 6460 cpm. This molecule also registered an Adhesion (cpm), Ramos (B) on HUVE monolayers, +IL-1β; SP2 control 12157 with integrin receptor α4β1 [7] of 3690 cpm. This molecule registered an Adhesion (cpm), Ramos (B) on HUVE monolayers, Basal; SP2 control 972 with integrin receptor α4β1 [7] of 456 cpm.
Turning to VPST [Peptide 350], the “Adhesion (cpm) +IL-1β” value in assay [10] (Table XI, no peptide 71408) turned out to be 98860 cpm; in assay [10] (peptides, Table X), 42728 cpm; in assay [11] (Table XI, no peptide 12936), 15320 cpm; in assay [11] (peptides, Table X), 4568 cpm; in assay [12] (Table XI, no peptide 314848) it was 322208 cpm; in [12] (peptides, Table X), 127544 cpm. The “Adhesion (cpm) Basal” value in [10] (basal HUVE, Table XI, no peptide 44860) was determined as 38176 cpm; in [11] (basal HUVE, Table XI, no peptide 2724), 4168 cpm; in [12] (basal HUVE, Table XI, no peptide 161092), 203716 cpm. Besides, in the assay on Jurkat cells, the IC50 is greater than 2.5 mM.
For the molecule monoclonal antibody P1D6, the Fibronectin Adhesion (% Control) with integrin α5β1 [13] is 22 % Control; with integrin α5β1 [14], 43 % Control; with integrin α5β1 [16], 18 % Control; with integrin α5β1 [21], 5 % Control. Also, the T lymphocyte adhesion (unit not given) in the assay with integrin α5β1 [15] came to 435; with integrin α5β1 [17], 42900; with integrin α5β1 [19], 202; in the assay with integrin α5β1 [20] it was 24900. For the same molecule, the Adhesion (cpm), Jurkat (T) on HUVE monolayers, +IL-1β; SP2 control 372159 with integrin α5β1 [18] is 418000 cpm. The Adhesion (cpm), Jurkat (T) on HUVE monolayers, Basal; SP2 control 83924 with integrin α5β1 [18] worked out at 84000 cpm. In the assay with integrin α5β1 [18], the Adhesion (cpm), LAD (B) on HUVE monolayers, +IL-1β; SP2 control 104672 is 114000 cpm. The same molecule gave an Adhesion (cpm), LAD (B) on HUVE monolayers, Basal; SP2 control 19542 with integrin α5β1 [18] of 15700 cpm. In the assay with integrin α5β1 [18], this molecule showed an Adhesion (cpm), Ramos (B) on HUVE monolayers, +IL-1β; SP2 control 12157 of 11200 cpm. Moreover, the Adhesion (cpm), Ramos (B) on HUVE monolayers, Basal; SP2 control 972 with integrin α5β1 [18] amounted to 808 cpm.

B1: 58 kDa tryptic fragment of plasma fibronectin (ligand, human, UniProt P02751-10 1589-2125, looked up)
chain: TAGPDQTEMTIEGLQPTVEYVVSVYAQNPSGESQPLVQTAVTTIPAPTDLKFTQVTPTSLSAQWTPPNVQLTGYRVRVTPKEKTGPMKEINLAPDSSSVVVSGLMVATKYEVSVYALKDTLTSRPAQGVVTTLENVSPPRRARVTDATETTITISWRTKTETITGFQVDAVPANGQTPIQRTIKPDVRSYTITGLQPGTDYKIYLYTLNDNARSSPVVIDASTAIDAPSNLRFLATTPNSLLVSWQPPRARITGYIIKYEKPGSPPREVVPRPRPGVTEATITGLEPGTEYTIYVIALKNNQKSEPLIGRKKTGQEALSQTTISWAPFQDTSEYIISCHPVGTDEEPLQFRVPGTSTSATLTGLTRGATYNVIVEALKDQQRHKVREEVVTVGNSVNEGLNQPTDDSCFDPYTVSHYAVGDEWERMSESGFKLLCQCLGFGSGHFRCDSSRWCHDNGVNYKIGEKWDRQGENGQMMSCTCLGNGKGEFKCDPHEATCYDDGKTYHVGEQWQKEYLGAICSCTCFGGQRGWRCDNCRR
notes: domain: Hep II and Fib II (58 kDa tryptic fragment)
Regarding B1, in the assay with integrin receptor α4β1 [22], the “maximum cell attachment relative to the 38 kDa fragment” value turned out to be 30%.

B2: rsa-CS-1 (peptide)
peptide: DELPQLVTLPHPNLHGPEILDVPST
modifications: also: conjugated to SMCC-derivatized rabbit serum albumin
notes: also called CS-1-rsa; CS-1 (RSA conjugate)
With B2, in the assay with integrin receptor α4β1 [23], the “Molar Concentration required for 50% adhesion of Jurkat cells” value was found to be 115 nM.
Still for that read-out and setting: the result for LHGPEILDVPST (also: conjugated to SMCC-derivatized rabbit serum albumin, also called B12-rsa conjugate) [rsa-B12] reads 492 nM.
For EILDV (also: conjugated to SMCC-derivatized rabbit serum albumin, also called EILDV-RSA) [rsa-EILDV], the “Molar Concentration required for 50% adhesion of Jurkat cells” value with integrin receptor α4β1 [23] is 1130 nM.
